From US10934559B2, “Hypersensitive ABA receptors” (The Regents of the University of California, priority 2014, dated 2021)

B1: I110S: PYR1 mutant I110S, SEQ ID NO:129 (protein)
chain: MPSELTPEERSELKNSIAEFHTYQLDPGSCSSLHAQRIHAPPELVWSIVRRFDKPQTYKHFIKSCSVEQNFEMRVGCTRDVIVISGLPANTSTERLDILDDERRVTGFSSIGGEHRLTNYKSVTTVHRFEKENRIWTVVLESYVVDMPEGNSEDDTRMFADTVVKLNLQKLATVAEAMARNSGDGSGSQVT
modifications: synthetic Arabidopsis PYR1 mutant I110S
B2: E141V: PYR1 mutant E141V, SEQ ID NO:136 (protein)
chain: MPSELTPEERSELKNSIAEFHTYQLDPGSCSSLHAQRIHAPPELVWSIVRRFDKPQTYKHFIKSCSVEQNFEMRVGCTRDVIVISGLPANTSTERLDILDDERRVTGFSIIGGEHRLTNYKSVTTVHRFEKENRIWTVVLVSYVVDMPEGNSEDDTRMFADTVVKLNLQKLATVAEAMARNSGDGSGSQVT
modifications: synthetic Arabidopsis PYR1 mutant E141V
B3: E141W: PYR1 mutant E141W, SEQ ID NO:137 (protein)
chain: MPSELTPEERSELKNSIAEFHTYQLDPGSCSSLHAQRIHAPPELVWSIVRRFDKPQTYKHFIKSCSVEQNFEMRVGCTRDVIVISGLPANTSTERLDILDDERRVTGFSIIGGEHRLTNYKSVTTVHRFEKENRIWTVVLWSYVVDMPEGNSEDDTRMFADTVVKLNLQKLATVAEAMARNSGDGSGSQVT
modifications: synthetic Arabidopsis PYR1 mutant E141W
B4: A160C: PYR1 mutant A160C, SEQ ID NO:139 (protein)
chain: MPSELTPEERSELKNSIAEFHTYQLDPGSCSSLHAQRIHAPPELVWSIVRRFDKPQTYKHFIKSCSVEQNFEMRVGCTRDVIVISGLPANTSTERLDILDDERRVTGFSIIGGEHRLTNYKSVTTVHRFEKENRIWTVVLESYVVDMPEGNSEDDTRMFCDTVVKLNLQKLATVAEAMARNSGDGSGSQVT
modifications: synthetic Arabidopsis PYR1 mutant A160C
B5: F61L: PYR1 mutant F61L, SEQ ID NO:124 (protein)
chain: MPSELTPEERSELKNSIAEFHTYQLDPGSCSSLHAQRIHAPPELVWSIVRRFDKPQTYKHLIKSCSVEQNFEMRVGCTRDVIVISGLPANTSTERLDILDDERRVTGFSIIGGEHRLTNYKSVTTVHRFEKENRIWTVVLESYVVDMPEGNSEDDTRMFADTVVKLNLQKLATVAEAMARNSGDGSGSQVT
modifications: synthetic Arabidopsis PYR1 mutant F61L
B6: E141L: PYR1 mutant E141L, SEQ ID NO:132 (protein)
chain: MPSELTPEERSELKNSIAEFHTYQLDPGSCSSLHAQRIHAPPELVWSIVRRFDKPQTYKHFIKSCSVEQNFEMRVGCTRDVIVISGLPANTSTERLDILDDERRVTGFSIIGGEHRLTNYKSVTTVHRFEKENRIWTVVLLSYVVDMPEGNSEDDTRMFADTVVKLNLQKLATVAEAMARNSGDGSGSQVT
modifications: synthetic Arabidopsis PYR1 mutant E141L
B7: F61M: PYR1 mutant F61M, SEQ ID NO:125 (protein)
chain: MPSELTPEERSELKNSIAEFHTYQLDPGSCSSLHAQRIHAPPELVWSIVRRFDKPQTYKHMIKSCSVEQNFEMRVGCTRDVIVISGLPANTSTERLDILDDERRVTGFSIIGGEHRLTNYKSVTTVHRFEKENRIWTVVLESYVVDMPEGNSEDDTRMFADTVVKLNLQKLATVAEAMARNSGDGSGSQVT
modifications: synthetic Arabidopsis PYR1 mutant F61M
B8: E141C: PYR1 mutant E141C, SEQ ID NO:130 (protein)
chain: MPSELTPEERSELKNSIAEFHTYQLDPGSCSSLHAQRIHAPPELVWSIVRRFDKPQTYKHFIKSCSVEQNFEMRVGCTRDVIVISGLPANTSTERLDILDDERRVTGFSIIGGEHRLTNYKSVTTVHRFEKENRIWTVVLCSYVVDMPEGNSEDDTRMFADTVVKLNLQKLATVAEAMARNSGDGSGSQVT
modifications: synthetic Arabidopsis PYR1 mutant E141C
B9: V81I: PYR1 mutant V81I, SEQ ID NO:126 (protein)
chain: MPSELTPEERSELKNSIAEFHTYQLDPGSCSSLHAQRIHAPPELVWSIVRRFDKPQTYKHFIKSCSVEQNFEMRVGCTRDIIVISGLPANTSTERLDILDDERRVTGFSIIGGEHRLTNYKSVTTVHRFEKENRIWTVVLESYVVDMPEGNSEDDTRMFADTVVKLNLQKLATVAEAMARNSGDGSGSQVT
modifications: synthetic Arabidopsis PYR1 mutant V81I
B10: E141Y: PYR1 mutant E141Y, SEQ ID NO:138 (protein)
chain: MPSELTPEERSELKNSIAEFHTYQLDPGSCSSLHAQRIHAPPELVWSIVRRFDKPQTYKHFIKSCSVEQNFEMRVGCTRDVIVISGLPANTSTERLDILDDERRVTGFSIIGGEHRLTNYKSVTTVHRFEKENRIWTVVLYSYVVDMPEGNSEDDTRMFADTVVKLNLQKLATVAEAMARNSGDGSGSQVT
modifications: synthetic Arabidopsis PYR1 mutant E141Y
B11: E141N: PYR1 mutant E141N, SEQ ID NO:134 (protein)
chain: MPSELTPEERSELKNSIAEFHTYQLDPGSCSSLHAQRIHAPPELVWSIVRRFDKPQTYKHFIKSCSVEQNFEMRVGCTRDVIVISGLPANTSTERLDILDDERRVTGFSIIGGEHRLTNYKSVTTVHRFEKENRIWTVVLNSYVVDMPEGNSEDDTRMFADTVVKLNLQKLATVAEAMARNSGDGSGSQVT
modifications: synthetic Arabidopsis PYR1 mutant E141N
B12: A160I: PYR1 mutant A160I, SEQ ID NO:140 (protein)
chain: MPSELTPEERSELKNSIAEFHTYQLDPGSCSSLHAQRIHAPPELVWSIVRRFDKPQTYKHFIKSCSVEQNFEMRVGCTRDVIVISGLPANTSTERLDILDDERRVTGFSIIGGEHRLTNYKSVTTVHRFEKENRIWTVVLESYVVDMPEGNSEDDTRMFIDTVVKLNLQKLATVAEAMARNSGDGSGSQVT
modifications: synthetic Arabidopsis PYR1 mutant A160I
B13: E141T: PYR1 mutant E141T, SEQ ID NO:135 (protein)
chain: MPSELTPEERSELKNSIAEFHTYQLDPGSCSSLHAQRIHAPPELVWSIVRRFDKPQTYKHFIKSCSVEQNFEMRVGCTRDVIVISGLPANTSTERLDILDDERRVTGFSIIGGEHRLTNYKSVTTVHRFEKENRIWTVVLTSYVVDMPEGNSEDDTRMFADTVVKLNLQKLATVAEAMARNSGDGSGSQVT
modifications: synthetic Arabidopsis PYR1 mutant E141T
B14: E141M: PYR1 mutant E141M, SEQ ID NO:133 (protein)
chain: MPSELTPEERSELKNSIAEFHTYQLDPGSCSSLHAQRIHAPPELVWSIVRRFDKPQTYKHFIKSCSVEQNFEMRVGCTRDVIVISGLPANTSTERLDILDDERRVTGFSIIGGEHRLTNYKSVTTVHRFEKENRIWTVVLMSYVVDMPEGNSEDDTRMFADTVVKLNLQKLATVAEAMARNSGDGSGSQVT
modifications: synthetic Arabidopsis PYR1 mutant E141M
B15: E141I: PYR1 mutant E141I, SEQ ID NO:131 (protein)
chain: MPSELTPEERSELKNSIAEFHTYQLDPGSCSSLHAQRIHAPPELVWSIVRRFDKPQTYKHFIKSCSVEQNFEMRVGCTRDVIVISGLPANTSTERLDILDDERRVTGFSIIGGEHRLTNYKSVTTVHRFEKENRIWTVVLISYVVDMPEGNSEDDTRMFADTVVKLNLQKLATVAEAMARNSGDGSGSQVT
modifications: synthetic Arabidopsis PYR1 mutant E141I

System: HAB1
Experiment: PYR1 mutant-HAB1 yeast two-hybrid assay under different ABA concentrations (X-gal staining)
Assay type: cell-based
Details: lowest (+)-ABA concentration giving detectable X-gal staining; S. cerevisiae Y190 with pACT-HAB1; 30° C., 48 hours
Description: The affinity of a receptor for a target ligand is typically determined by non-covalent interactions between ligand-binding residues and the ligand. Mutations in such residues can have negative, positive or neutral effects on the strength of the receptor—ligand interaction. The affinity of a receptor-ligand interaction is intrinsically correlated with the concentration of ligand required to elicit biological effects, with high affinity ligands requiring lower concentrations relative to low affinity ligands. A mutant receptor with increased affinity for a ligand can in some cases elicit greater biological effect relative to a wild type receptor, when both are activated under identical conditions by the same concentration of activating ligand. Thus, mutations that make a receptor hypersensitive to a ligand can be useful for engineering organisms that elicit stronger responses to the ligand relative to wild type. […] Based on these considerations, we set out to systematically establish specific ABA receptor mutations that increase ABA responsiveness. This was done by testing a collection of PYR1 variants with all possible single amino acid substitution mutations in ligand binding residues. Thus we conducted site-saturated mutagenesis of ABA-contacting residues, which we define as those that are within 5A or ABA or ABA-contacting water residues in available X-ray coordinates. This collection of mutants was constructed previously, as described in PCT Application No. PCT/US2012/043121 and Mosquna et al., Proc Natl Acad Sci USA 108: 20838-20843 (2011). This collection of mutants was made by mutagenizing a previously described pBD GAL-PYR1 template (Park, S.-Y., et al. Science 324, 1068-1071 ([…])). In response to ABA, this particular plasmid encodes a fusion protein that binds to a co-expressed GAL4 activation domain-HAB1 fusion protein, encoded by the plasmid pACT-HAB1. This binding reconstitutes a functional GAL4 transcriptional activator and subsequent transcription of a β-galactosidase reporter gene, which in turn enables colorimetric based detection of agonist promoted receptor-PP2C interaction when lysed cells are exposed to the substrate X-gal. The mutant clones were individually transformed into S. cerevisiae strain Y190 containing pACT-HAB1. Yeast transformants were selected for the presence of plasmids on synthetic dextrose (SD) agar plates lacking Leu and Trp (SD-LT) and examined for PP2C interactions by using X-gal staining to monitor β-gal reporter gene expression levels. Individual clones were arrayed into 96 well plates and then spotted onto SD-LT lawn (i.e. one-well) plates containing 0, 0.5 or 5.0 μM (+)-ABA. Each assay plate contained 95 mutant clones and one wild type PYR1 positive control clone. The spotted cells were cultured at 30° C. for 48 hours after which they were lysed by chloroform and stained with an X-gal solution, as previously described (Park, S.-Y., et al. (2009) Science 324, 1068-1071). […] After this initial screening exercise, all positives clones were retested on plates containing […] and stained for galactosidase activity as described above. Mutant clones showing detectable staining on 0.5 μM (+)-ABA or lower were scored as hypersensitive mutants. FIG. 1 depicts results of PYR1 mutant-HAB1 interactions as assayed in a yeast two-hybrid assay under different ABA concentrations, with darker spots indicating increased interaction.

B1 and B2 are the same in “Minimal conc. For ABA response” value: 0.5 µM for the first, 0.5 µM for the second.

First: B3
Second: B4
The “Minimal conc. For ABA response” value of the first is 2-fold higher: 0.5 µM for the first, 0.25 µM for the second.

B5 and B6 are the same in “Minimal conc. For ABA response” value: 0.25 µM for the first, 0.25 µM for the second.

Going from B7 to B8, the “Minimal conc. For ABA response” value rises from 0.25 µM to 0.5 µM (2-fold).

B9 and B10 are the same in “Minimal conc. For ABA response” value: 0.25 µM for the first, 0.25 µM for the second.

First: B11
Second: B12
The “Minimal conc. For ABA response” value of the first is 2-fold higher: 0.5 µM for the first, 0.25 µM for the second.

First: B13
Second: B14
The “Minimal conc. For ABA response” value of the first is 2-fold higher: 0.5 µM for the first, 0.25 µM for the second.

For B15, the “Minimal conc. For ABA response” value was 0.25 µM.
